Where a chain is given by its changes, count along the chain named.
T1: MICA*008 on MEL-JUSO cells (human, UniProt Q29983 24-317)
T1 chain: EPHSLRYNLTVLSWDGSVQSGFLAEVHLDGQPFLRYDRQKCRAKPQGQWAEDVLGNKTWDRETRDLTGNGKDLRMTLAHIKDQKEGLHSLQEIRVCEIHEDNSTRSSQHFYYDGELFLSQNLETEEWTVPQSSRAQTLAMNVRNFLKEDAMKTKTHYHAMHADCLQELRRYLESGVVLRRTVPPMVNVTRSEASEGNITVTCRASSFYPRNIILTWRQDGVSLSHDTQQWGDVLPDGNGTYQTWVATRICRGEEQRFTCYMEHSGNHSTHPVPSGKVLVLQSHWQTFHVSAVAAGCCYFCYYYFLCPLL

T2: huMICA*004 alpha 3-his (human)
T2 construct: whole construct entry: GS, alpha 3 domain, GNS, His8; also called MICA004.His; MICA*004 alpha3 construct
T2 chain: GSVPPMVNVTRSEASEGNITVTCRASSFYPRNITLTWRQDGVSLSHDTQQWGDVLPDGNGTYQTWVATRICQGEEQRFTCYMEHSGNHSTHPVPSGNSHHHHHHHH

T3: huMICA*002 alpha 3-his (human)
T3 construct: whole construct entry: GS, alpha 3 domain, GNS, His8; also called MICA002.His; MICA*002 alpha3 construct
T3 chain: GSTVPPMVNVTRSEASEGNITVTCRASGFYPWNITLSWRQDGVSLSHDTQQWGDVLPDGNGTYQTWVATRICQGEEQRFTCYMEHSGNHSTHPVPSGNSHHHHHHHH

T4: huMICA*008 alpha 3-his (human)
T4 construct: whole construct entry: GS, alpha 3 domain (Thr204-Ser297), GNS, His8; also the construct of the FPOP experiment; also called MICA008.His; MICA*008 alpha3 construct
T4 chain: T3 chain with G28S, W32R, T35I, S37T, Q73R

T5: huMICB*005 alpha 3-his (human)
T5 construct: whole construct entry: GS, alpha 3 domain, GNS, His8; also called MICB005.His; MICB*005 alpha3 construct
T5 chain: T3 chain with R12C, A15V, G28S, W32R, S37T, D48N, C72R, S90G

B1: 1D5v1 (antibody, IgG1, V domains shown)
VH: EIQLVQSGAEVKKPGASVKVSCKASGYAFTSQNIYWVRQAPGQGLEWIGYIEPYNVVPMYNPKFKGRATLTVDKSTSTAYMELRSLRSDDTAVYYCARSGSSNFDYWGQGTLVTVSS
VL: EIVLTQSPDFQSVTPKEKVTITCSASSSISSHYLHWYQQKPDQSPKLLIYRTSNLASGVPSRFSGSGSGTDYTLTINSLEAEDAATYYCQQGSSLPLTFGQGTKVEIK
notes: humanized variant of 1D5; also called lD5v1
B2: 1D5v11 (antibody, IgG1, V domains shown)
VH: B1 VH with M81L, R84S, D89E
VL: DIQLTQSPSSLSASVGDRVTITCSASSSISSHYLHWYQQKPGKSPKLLIYRTSNLASGVPSRFSGSGSGTDYTLTISSLQPEDFATYYCQQGSSLPLTFGQGTKVEIK
notes: humanized variant of 1D5
B3: 1D5v3 (antibody, IgG1, V domains shown)
VH: B1 VH with M81L, R84S, D89E
VL: B1 VL
notes: humanized variant of 1D5
B4: 1D5v8 (antibody, IgG1, V domains shown)
VH: B1 VH with I2V, A68V, L70I, V72R, K74T, M81L, R84S, D89E
VL: B1 VL with Y50K, Y72F
notes: humanized variant of 1D5
B5: 1D5v5 (antibody, IgG1, V domains shown)
VH: B1 VH
VL: B1 VL with Y50K, Y72F
notes: humanized variant of 1D5
B6: 1D5v7 (antibody, IgG1, V domains shown)
VH: B1 VH with M81L, R84S, D89E
VL: B1 VL with Y50K, Y72F
notes: humanized variant of 1D5
B7: 1D5v6 (antibody, IgG1, V domains shown)
VH: B1 VH with I2V, I48M, A68V, L70M, V72T, K74T
VL: B1 VL with Y50K, Y72F
notes: humanized variant of 1D5
B8: 1D5v9 (antibody, IgG1, V domains shown)
VH: B1 VH
VL: B2 VL
notes: humanized variant of 1D5
B9: 1D5v2 (antibody, IgG1, V domains shown)
VH: B1 VH with I2V, I48M, A68V, L70M, V72T, K74T
VL: B1 VL
notes: humanized variant of 1D5
B10: 1D5v4 (antibody, IgG1, V domains shown)
VH: B1 VH with I2V, A68V, L70I, V72R, K74T, M81L, R84S, D89E
VL: B1 VL
notes: humanized variant of 1D5
B11: 1D5v10 (antibody, IgG1, V domains shown)
VH: B1 VH with I2V, I48M, A68V, L70M, V72T, K74T
VL: B2 VL
notes: humanized variant of 1D5
B12: 15F11 (antibody, V domains shown)
VH: EIQLQQSGPELVKPGASVRVSCKPSGYAFTSNNIYWVKQSRRKSLEWIGYIDPYIGRIIYNQQFKDKATLTVDKSSSTAYMHLNSLTSEDSAVYYCSRSGERSNFDYWGQGTTLTVSS
VL: EIVLTQSPTAMAASPGEKITITCSASSSISSNYLHWYQQKPGFSPKLLIYRTSNLASGVPARFSGSGSGTSYSLTIGPMEAEDVATYYCQQGGSLPLTFGAGTKVEIK
notes: mouse variable domains
B13: 1D5 (m IgG2a, CHO) (antibody, V domains shown)
VH: EIQLQQSGPELVKPGASVKVSCKASGYAFTSQNIYWVKQSHGKSLEWIGYIEPYNVVPMYNPKFKGKATLTVDKSSSSAYIHLNSLTSEDSAIYYCARSGSSNFDYWGQGTTLTVSS
VL: B12 VL with V3I, A10T, N32H, P41S, P78T, G93S
B14: 15F11 (m IgG2a, CHO) (antibody, V domains shown)
VH: B12 VH
VL: B12 VL
B15: 6E1 (m IgG2a, CHO) (antibody, V domains shown)
VH: QGQMQQSGAELVKPGASVKLSCKTSGFTFSDNYISWLKQKPGQSLEWIAWIYAGTGGSSYNQKFRDKAQLTVDTSSRTAYMQLSSLTTEDSAIYYCARHDYYGTSGAWFAYWGRGTLVTVSA
VL: DVLMTQTPLSLPVSLGDQASISCRSSQHIVHSNENTYLEWYLQKPGQSPKLLIYKVSNRFSGVPDRFSGSGSGTDFTLKISRVEAEDLGVYYCFQGSHVPWTFGGGTKVEIK
B16: 13A9 (antibody, V domains shown)
VH: QVQLQQSGAELVRPGTSVKVSCKASGYAFTNYLIEWVKQRPGQGLEWIGAINPGSGATNYNEKFKDKARLTADKSSNTAYLQFSSLTSDDSAVYFCARFLGNYFDNWGQGATLTVSS
VL: DIQMTQSPASLSASVGETVTITCRASGNIHSYLAWYQQKQGKSPQLLVYYAETLADGVPSRFSGRGSGTQYSLKINSLQPEDFGSYFCQQFWTTPYTFGGGTKVEIK
notes: mouse variable domains
B17: 13A9 (m IgG2a, CHO) (antibody, V domains shown)
VH: B16 VH
VL: B16 VL
B18: 1D5v14 (antibody, IgG1, V domains shown)
VH: B1 VH with I2V, I48M, A68V, L70M, V72T, K74T
VL: B2 VL with L4M, S44A, Y72F
notes: humanized variant of 1D5; also called 1D5v14 second data point

Biological target: MICA*004 on HCC1534 cells (human, UniProt Q29983 24-383)
Assay: cell-based or functional assay
Throughout, for % Inhibition: test concentration or dose not given here.

| % Inhibition | Binder |
| --- | --- |
| 54% | B1 |
| 52% | B2 |
| 56% | B3 |
| 42% | B4 |
| 39% | B5 |
| 48% | B6 |
| 47% | B7 |
| 53% | B8 |
| 38% | B9 |
| 46% | B10 |
| 62% | B11 |
| 54% | B12 |
| 59% | B13 |
| 60% | B14 |
| 40% | B15 |
| 21% | B16 |
| 34% | B17 |

Biological target: T1, MICA*008 on MEL-JUSO cells
Assay: cell-based or functional assay

| % Inhibition | Binder |
| --- | --- |
| 52% | B1 |
| 56% | B2 |
| 50% | B3 |
| 52% | B4 |
| 36% | B5 |
| 51% | B6 |
| 51% | B7 |
| 49% | B8 |
| 33% | B9 |
| 43% | B10 |
| 58% | B11 |
| 50% | B12 |
| 74% | B13 |
| 69% | B14 |
| 36% | B15 |
| -7% | B16 |
| 29% | B17 |

Biological target: MICB*005 on HCC1534 cells (human)
Assay: cell-based or functional assay

| % Inhibition | Binder |
| --- | --- |
| 41% | B1 |
| 36% | B2 |
| 38% | B3 |
| 35% | B4 |
| 32% | B5 |
| 42% | B6 |
| 37% | B7 |
| 41% | B8 |
| 26% | B9 |
| 34% | B10 |
| 43% | B11 |
| 43% | B12 |
| 76% | B13 |
| 57% | B14 |
| 47% | B15 |
| 61% | B16 |
| 60% | B17 |

Biological target: T2, huMICA*004 alpha 3-his
Assay: SPR, Biacore 8K, antibody on Protein A chip
Procedure: (§1) A Protein A sensorchip (GE Healthcare) was used following manufacturer provided protocols to capture humanized anti-MICA/B antibodies. The MICA/B alleles were passed over. Antibody binding was measured to human MICA 002, 004, 008 and MICB 005 alpha 3 domains (His tagged, in-house). Sensograms for binding of MICA/B were recorded using an injection time of 2 minutes with a flow rate of 30 ml/min, at a temperature of 25° C., and with a running buffer of 10 mM HEPES, pH 7.4, 150 mM NaCl, 3mM EDTA, and 0.005% Tween 20. After injection, disassociation of the alpha 3 domain from the antibody was monitored for 10 minutes in running buffer. The surface was regenerated between binding cycles with a 60 ul injection of 10 mM Glycine HCl pH 1.5. […] The data was analyzed using a 1:1 binding model. Sensograms of MICA alleles binding to captured anti-MICA antibody were used to calculate the dissociation constant (Kd).

| Kd | Binder |
| --- | --- |
| 1.17 nM | B1 |
| 0.83 nM | B2 |
| 0.96 nM | B3 |
| 9.41 nM | B4 |
| 2.13 nM | B5 |
| 1.67 nM | B6 |
| 2.91 nM | B7 |
| 0.95 nM | B8 |
| 1.34 nM | B9 |
| 6.2 nM | B10 |
| 1.08 nM | B11 |
| 1.23 nM | B18 |
| 1.31 nM | B12 |
| 6.77 nM | B16 |

Biological target: T3, huMICA*002 alpha 3-his
Assay: SPR, Biacore 8K, antibody on Protein A chip
Procedure: as §1

| Kd | Binder |
| --- | --- |
| 1.4 nM | B1 |
| 1.09 nM | B2 |
| 1.21 nM | B3 |
| 11.3 nM | B4 |
| 2.59 nM | B5 |
| 2.21 nM | B6 |
| 3.69 nM | B7 |
| 1.31 nM | B8 |
| 1.69 nM | B9 |
| 6.63 nM | B10 |
| 1.44 nM | B11 |
| 1.62 nM | B18 |
| 2.21 nM | B12 |
| 4.82 nM | B16 |

Biological target: T4, huMICA*008 alpha 3-his
Assay: SPR, Biacore 8K, antibody on Protein A chip
Procedure: as §1

| Kd | Binder |
| --- | --- |
| 0.96 nM | B1 |
| 0.78 nM | B2 |
| 0.85 nM | B3 |
| 9.08 nM | B4 |
| 1.64 nM | B5 |
| 1.7 nM | B6 |
| 2.61 nM | B7 |
| 0.87 nM | B8 |
| 0.89 nM | B9 |
| 7.45 nM | B10 |
| 1.05 nM | B11 |
| 1.16 nM | B18 |
| 0.79 nM | B12 |
| 2.35 nM | B16 |

Biological target: T5, huMICB*005 alpha 3-his
Assay: SPR, Biacore 8K, antibody on Protein A chip
Procedure: as §1

| Kd | Binder |
| --- | --- |
| 1.96 nM | B1 |
| 1.38 nM | B2 |
| 1.78 nM | B3 |
| 18.8 nM | B4 |
| 3.99 nM | B5 |
| 3.31 nM | B6 |
| 6.15 nM | B7 |
| 1.51 nM | B8 |
| 2.69 nM | B9 |
| 16.2 nM | B10 |
| 1.98 nM | B11 |
| 2.14 nM | B18 |
| 2.28 nM | B12 |
| 2.35 nM | B16 |

Source: patent US20200055939A1 (Genentech, published 2020)
